Series [1] in a line: Light scattering intensity of 1 mg/mL aqueous solution, relative to toluene. It counts as physicochemical. The procedure:
Regarding the measurement sample for the scattering intensity measurement, a solution obtained by adding ultrapure water to a physiologically active substance-conjugated block copolymer to obtain a concentration of 1 mg/mL, dissolving the block copolymer by irradiating the mixture with ultrasonic waves for 10 minutes under ice cooling, and then filtering the solution through a 0.2-μm membrane filter, was used.
Toluene (manufactured by Junsei Chemical Co., Ltd., special grade) that was used for the measurement of the light scattering intensity, was used after being filtered three times through a 0.2-μm membrane filter.

In series [2] the test system is human pancreatic cancer BxPC3. Nature of the series: Test Example C-1 intratumor distribution test. The following applies: 5 mg/kg as converted to 2-(2-aminoethoxy)-9-(diethylamino)-5H-benzo[a]phenoxazin-5-one, iv once, one hour after administration. The series is classed as in vivo, nude mouse. The source says: (§1) A tumor mass of human pancreatic cancer BxPC3 that had been subcultured by subcutaneous transplantation in a BALB/c nude mouse was cut into a block having a size of about 3 mm on each side, and this block was subcutaneously transplanted on the dorsal side of a nude mouse using a trocar. […] One hour after the administration, blood was removed from the mouse under isoflurane anesthesia, frozen embedded slices of the removed tumor and the kidneys were produced, and fluorescence was observed.

Series [3] can be described thus: Test Example C-1 intrarenal distribution test. The series is classed as in vivo, nude mouse. To be noted: 5 mg/kg as converted to 2-(2-aminoethoxy)-9-(diethylamino)-5H-benzo[a]phenoxazin-5-one, iv once, one hour after administration.
Description: as §1

The subject of series [4] is human colorectal cancer Col-5-JCK and Co-3-KIST, human breast cancer MC-19-JCK. To be noted: 75 or 50 mg/kg as converted to Ganetespib, iv once, compared to Comparative Example B-1. The procedure:
The tumor volume was determined by measuring the major axis (L: mm) and the minor axis (W: mm) of the tumor, and calculating the volume by the calculation formula: (L×W^2)/2.

Series [5] relates to human pancreatic cancer BxPC3. Nature of the series: Test Example A-1 intratumor distribution test. The series is classed as in vivo, nude mouse. To be noted: 50 mg/kg as converted to 7-ethyl-10-hydroxycamptothecin, iv once, 30 minutes after administration. The source says: Thirty minutes after the administration, blood was removed from the mouse under isoflurane anesthesia, frozen embedded slices of the removed tumor were produced, and fluorescence was observed.

Series [6] in a line: Test Example A-2 intrarenal distribution test. The series is classed as in vivo, C.B-17SCID mouse. To be noted: 50 mg/kg as converted to 7-ethyl-10-hydroxycamptothecin, iv once, 30 minutes after administration.
The procedure of series [7]: As a control group, a 5% glucose injection solution was intravenously administered once through the caudal vein.
Polysorbate 80 was added thereto in an amount equal to the amount of anhydrous ethanol, and the mixture was sufficiently mixed. This was used as a preparation stock solution.
After 3, 5, 7, 11, and 14 days from the day of administration of the various compounds, blood was collected through the subclavian vein without anesthesia using a 1-mL disposable syringe with a 26 G needle. About 3 μL of an EDTA-2K solution had been added in advance to the syringe, and this solution was sufficiently mixed with the blood thus collected. The resultant solutions were used as analysis samples. The blood samples were subjected to a blood cell analysis using a blood cell analysis apparatus XT-2000iV (Sysmex Corp.).

In series [8] the test system is human pancreatic cancer BxPC3. Nature of the series: Test Example C-3 antitumor effect test in human pancreatic cancer-transplanted nude mouse. To be noted: 60 mg/kg as converted to cabazitaxel. It counts as in vivo. How it is done: A tumor mass of human pancreatic cancer BxPC3 that had been subcutaneously subcultured in a nude mouse was cut into a block having a size of about 3 mm on each side, and this block was subcutaneously transplanted on the dorsal side of a nude mouse using a trocar.
A relative tumor volume was determined from the tumor volumes obtained on the day of administration and on the 8th day after the administration, and this was employed as an index for the antitumor effect. The tumor volume was determined by measuring the major axis (L: mm) and the minor axis (W: mm) of the tumor, and calculating the volume by the calculation formula: (L×W^2)/2.

The test system of a further series is human lung cancer H460. The experiment in a line: Test Example C-4 antitumor effect test in human lung cancer-transplanted nude mouse. The following applies: 60 mg/kg as converted to cabazitaxel. The series is classed as in vivo. How it is done:
A tumor mass of human lung cancer H460 that had been subcutaneously subcultured in a nude mouse was cut into a block having a size of about 3 mm on each side, and this block was subcutaneously transplanted on the dorsal side of a nude mouse using a trocar.
A relative tumor volume was determined from the tumor volumes obtained on the day of administration and on the 15th day after the administration, and this was employed as an index for the antitumor effect. The tumor volume was determined by measuring the major axis (L: mm) and the minor axis (W: mm) of the tumor, and calculating the volume by the calculation formula: (L×W^2)/2.

Series [9] is described as follows: Maximum tolerated dose / maximum non-lethal dose, single intravenous administration. It counts as in vivo, mice. To be noted: as converted to cabazitaxel, iv once through the caudal vein.
Setting [10] is: compared to cabazitaxel 30 mg/kg.

As for “2-(2-aminoethoxy)-9-(diethylamino)-5H-benzo[a]phenoxazin-5-one Conjugate of polyethylene glycol (2 Kilodaltons)-α,β-polyaspartic Acid (12.5 Polymer) Block Copolymer [Comparative Example C-3]”, the “relative ratio between the light scattering intensity and the light scattering intensity of toluene” value in [1] (1 mg/mL aqueous solution vs standard toluene solution under the same conditions) was “less than twice”. Further, the “self-association in aqueous solution” value in series [1] (aqueous solution) is listed as “non-associating”. Also, the “tissue distribution in tumor slices (fluorescence)” value (“tissue distribution in tumor slices” for short) in [2] was “migration and accumulation in the tumor tissue was low”. Moreover, in series [3], the “tissue distribution in kidney slices (fluorescence)” value is reported as “fluorescence was observed in the renal tubules”.

With “4-isopropyl-6-(4-(1-methyl-1H-indol-5-yl)-5-methylene-4,5-dihydro-1H-1,2,4-triazol-3-yl)benzene-1,3-diol Conjugate of polyethylene glycol (2 Kilodaltons)-polyglutamic Acid (7.9 Polymer) Block Copolymer [Example B-1]”, the “antitumor effect” value in series [4] was “superior effect in both subcutaneous tumor models at the same dose”.

Consider “7-ethyl-10-hydroxycamptothecin (EHC) and 2-(2-aminoethoxy)-9-(diethylamino)-5H-benzo[a]phenoxazin-5-one Conjugate of polyethylene glycol (2 Kilodaltons)-polyglutamic Acid (7.6 Polymer) Block Copolymer [Example A-4]”, for which, in [5], the “tissue distribution in tumor slices” value is “could penetrate into deep parts of a tumor tissue”. Moreover, the “tissue distribution in kidney slices (fluorescence)” value in series [6] was “fluorescent signals were observed in the blood vessels and the renal tubules of the kidneys”.

As for “7-ethyl-10-hydroxycamptothecin (EHC) and 2-(2-aminoethoxy)-9-(diethylamino)-5H-benzo[a]phenoxazin-5-one Conjugate of polyethylene glycol (12 Kilodaltons)-polyglutamic Acid (25 Polymer) Block Copolymer [Comparative Example A-4, reference compound]”, the “tissue distribution in tumor slices” value in series [5] is on record as “did not penetrate into deep parts of the tumor tissue”. Moreover, the “tissue distribution in kidney slices (fluorescence)” value in [6] is “fluorescence was not recognized in areas other than the blood vessels of the kidneys”.

For “Cabazitaxel (CBZ) and n-butylamine Conjugate of polyethylene glycol (2 Kilodaltons)-α,β-polyaspartic Acid (12.5 Polymer) Block Copolymer [Example C-1]”, in series [7] (60 mg/kg as converted to cabazitaxel, iv once, 5th day after administration), the “Number of blood reticulocytes” value is given as 52.69 ± 13.95 ×10^4/μL. In addition, the “prolonged hematotoxicity” value in series [7] (5 days after administration) is given as “prolonged hematotoxicity was not recognized”. Further, the “antitumor effect” value (in series [8] (setting [10]); with human lung cancer H460 (setting [10])) was “stronger tumor proliferation suppressing action” each time. Besides, the Relative tumor volume is given as 0.83 ± 0.10 in series [8] (iv once, 8th day after administration, day of administration = 1.0, average ± SD) and 0.560 ± 0.201 with human lung cancer H460 (iv once, 15th day after administration, day of administration = 1.0, average ± SD). This substance gave a maximum tolerated dose in [9] of 60 mg/kg.

(Values after patent publication US10357573B2, “Block copolymer conjugate of physiologically active substance” (Nippon Kayaku Kabushiki Kaisha, priority 2015, dated 2019).)
